Molecular target: T1, λ2^315 Ig L-chain (idiotype, Id) peptide on I-E^d (mouse)
T1 peptide: ALWFRNHFVFG
Assay: activation reporter or marker

B1: 4B2A1 TCR (TCR, V domains shown)
Valpha: QQKVQQSPESLIVPEGAMTSLNCTFSDSASQYFAWYRQQSGKAPKALMSIFSNGEKEEGRFTIHLNKASLHFSLHIRDSQPSDSALYLCAVRGPNTGNYKYVFGAGTRLKVIA
Vbeta: EAAVTQSPRNKVAVTGGKVTLSCNQTNNHNNMYWYRQDTGHGLRLIHYSYGAGSTEKGDIPDGYKASRPSQENFSLILELATPSQTSVYFCASGDAGQGHSDYTFGSGTRLLVI
**Q.** Does B1 bind?
**A.** recognises

Source: patent US20110126299A1 (published 2011)
